According to US20060177441A1 (Genentech, published 2006):

What was measured:
[1] = target: c-mpl (thrombopoietin receptor) on HU-03 cells, human platelets or human cord blood cells (human) (UniProt P40238); assay: Hu3 Binding: competition with 125I-TPO (100 pM) on HU-03 cells
[2] = target: c-mpl (thrombopoietin receptor) on HU-03 cells, human platelets or human cord blood cells (human) (UniProt P40238); assay: Platelets: competition with 125I-TPO (100 pM) on human platelets
[3] = target: c-mpl (thrombopoietin receptor) on HU-03 cells, human platelets or human cord blood cells (human) (UniProt P40238); assay: cell-based or functional assay
[4] = target: mpl-Rse.gD chimeric receptor (human) (UniProt P40238); assay: cell-based or functional assay
mpl-Ig = target: T1, mpl-Ig (UniProt P40238 26-491); assay: Mpl/TPO ELISA: inhibition of biotinylated TPO binding to captured mpl-Ig
T1 construct: Used as conditioned medium of mpl-Ig-transfected 293 cells, captured on anti-human IgG Fc plates; also called Mpl (Mpl/TPO ELISA); not shown: Ig part, captured by rabbit anti-human IgG Fc
T1 sequence (looked up): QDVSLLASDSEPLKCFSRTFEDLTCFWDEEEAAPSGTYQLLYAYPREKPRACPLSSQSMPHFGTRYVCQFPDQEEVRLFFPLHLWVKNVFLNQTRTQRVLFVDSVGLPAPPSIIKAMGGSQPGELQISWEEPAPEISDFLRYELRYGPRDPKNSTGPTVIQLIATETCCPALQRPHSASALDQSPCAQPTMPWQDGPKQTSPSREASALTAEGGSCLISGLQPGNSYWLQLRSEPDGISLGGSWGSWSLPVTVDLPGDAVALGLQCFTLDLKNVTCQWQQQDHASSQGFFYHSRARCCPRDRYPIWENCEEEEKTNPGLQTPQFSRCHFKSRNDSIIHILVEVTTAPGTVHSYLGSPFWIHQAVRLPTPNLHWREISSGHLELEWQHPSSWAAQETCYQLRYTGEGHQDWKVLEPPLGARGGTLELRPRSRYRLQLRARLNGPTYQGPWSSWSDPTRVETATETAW

[5] = target: T2, c-mpl (thrombopoietin receptor) on HU-03 cells, human platelets or human cord blood cells (human, UniProt P40238 26-635); assay: Hu3 Binding: competition with 125I-TPO (100 pM) on HU-03 cells
T2 construct: whole, on cells; also called mpl receptor; TPO receptor
T2 sequence (looked up): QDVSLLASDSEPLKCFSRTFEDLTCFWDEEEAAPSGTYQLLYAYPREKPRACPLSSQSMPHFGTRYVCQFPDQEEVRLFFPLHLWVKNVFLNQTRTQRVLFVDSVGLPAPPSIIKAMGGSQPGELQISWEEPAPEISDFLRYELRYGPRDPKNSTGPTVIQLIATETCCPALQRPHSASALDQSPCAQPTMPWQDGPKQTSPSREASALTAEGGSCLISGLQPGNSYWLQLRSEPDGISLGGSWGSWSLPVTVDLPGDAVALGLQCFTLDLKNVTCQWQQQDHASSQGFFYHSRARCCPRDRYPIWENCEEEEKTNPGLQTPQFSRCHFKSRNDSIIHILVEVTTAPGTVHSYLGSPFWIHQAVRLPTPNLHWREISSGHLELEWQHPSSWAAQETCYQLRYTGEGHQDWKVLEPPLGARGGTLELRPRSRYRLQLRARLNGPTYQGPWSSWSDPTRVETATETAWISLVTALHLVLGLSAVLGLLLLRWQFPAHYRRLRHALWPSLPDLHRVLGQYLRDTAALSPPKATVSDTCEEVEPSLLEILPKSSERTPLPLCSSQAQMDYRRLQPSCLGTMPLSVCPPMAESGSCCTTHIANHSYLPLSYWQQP
Experimental: (§1) HU-03 cells were agitated during the incubation period to keep them in suspension. The reaction mixture was overlayed on 1 ml 20% sucrose-HBSSB and microcentrifuged at 13,500 rpm for five minutes. The supernatants were aspirated, tube bottoms containing the cell pellets were cut off, and cell- or platelet-associated radioactivity was measured with an Iso Data Model 120 gamma counter.

[6] = target: T2, c-mpl (thrombopoietin receptor) on …; assay: Platelets: competition with 125I-TPO (100 pM) on human platelets
Experimental: as §1

B1: 12B5 IgG (antibody, from another filing)
scFv: QVQLVQSGGGLVRPGGSLSLSCAVSGITLRTYGMHWVRQAPGKGLEWVAGISFDGRSEYYADSVQGRFTISRDSSKNTLYLQMNSLRAEDTAVYYCARGAHYGFDIWGQGTMVTVSSGGGGTGGGGSGGGGSDIQMTQSPSTLSASIGDRVTITCRASEGIYHWLAWYQQKPGKAPKLLIYKASSLASGAPSRFSGSGSGTDFTLTISSLQPDDFATYYCQQYSNYPLTFGGGTKLEIK
B1 showed an IC50 [1] of 10 nM, an IC50 [2] of 300 nM and a Hu3 Proliferation (ED50) [3] of 0.03 nM. The KIRA (ED50) [4] was 0.4 nM and the IC50 (mpl-Ig) was 0.152 nM.

B2: 12E10 Fab (Fab, V domains shown)
VH: QVQLQQSGPGLVKPSETLSLTCTVSGDSISSYYWSWIRQPPGKGLEWIGYIYYSGSTNYNPSLKSRVTISVDTSKSQFSLKLSSVTAADTAVYYCARGRYFDVWGRGTMVTVSS
VL: SYVLTQPPSVSGSPGQSITISCTGTSSDVGGYNYVSWYQQHPGKAPKLMIYEGSKRPSGVSNRFSGSKSGNTASLTISGLQAEDEADYYCSSYTTRSTRVFGGGTKLTVL
notes: Monovalent Fab′ from E. coli: human IgG1 CH1 ending thr-ala-ala-pro, human kappa1 CL (pXCA730) or human lambda CL (pXCA970)
For B2, the IC50 [5] was 500 nM and the IC50 (mpl-Ig) was 180 nM.

B3: 12E10 Fab′2 (other)
VH: QVQLQQSGPGLVKPSETLSLTCTVSGDSISSYYWSWIRQPPGKGLEWIGYIYYSGSTNYNPSLKSRVTISVDTSKSQFSLKLSSVTAADTAVYYCARGRYFDVWGRGTMVTVSS
VL: SYVLTQPPSVSGSPGQSITISCTGTSSDVGGYNYVSWYQQHPGKAPKLMIYEGSKRPSGVSNRFSGSKSGNTASLTISGLQAEDEADYYCSSYTTRSTRVFGGGTKLTVL
notes: F(ab′)2 with leucine zipper, expressed in E. coli from pXCA740; copies: 2 + 2
For B3, the IC50 [6] was 500 nM, the IC50 [5] was 10 nM and the IC50 (mpl-Ig) was 640 nM.

B4: 12E10 IgG (antibody, V domains shown)
VH: QVQLQQSGPGLVKPSETLSLTCTVSGDSISSYYWSWIRQPPGKGLEWIGYIYYSGSTNYNPSLKSRVTISVDTSKSQFSLKLSSVTAADTAVYYCARGRYFDVWGRGTMVTVSS
VL: SYVLTQPPSVSGSPGQSITISCTGTSSDVGGYNYVSWYQQHPGKAPKLMIYEGSKRPSGVSNRFSGSKSGNTASLTISGLQAEDEADYYCSSYTTRSTRVFGGGTKLTVL
notes: Full length antibody with human IgG1 CH1, CH2 and CH3 domains, expressed in 293 or CHO cells; also called full length human antibody derivative of 12E10
With B4 the IC50 [6] was 500 nM, the IC50 [5] was 50 nM and the IC50 (mpl-Ig) was 0.45 nM.
